Source: patent US20220172420A1 (Daiichi Sankyo, published 2022)

B1: anti-HER3 human antibody U1-59 (antibody, human IgG1, kappa, V domains shown)
VH: QVQLQQWGAGLLKPSETLSLTCAVYGGSFSGYYWSWIRQPPGKGLEWIGEINHSGSTNYNPSLKSRVTISVETSKNQFSLKLSSVTAADTAVYYCARDKWTWYFDLWGRGTLVTVSS
VL: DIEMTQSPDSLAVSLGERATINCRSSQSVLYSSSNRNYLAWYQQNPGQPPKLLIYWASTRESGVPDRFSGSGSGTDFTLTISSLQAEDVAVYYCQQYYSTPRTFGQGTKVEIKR
notes: also called non-conjugated anti-HER3 antibody U1-59
B2: Antibody-drug conjugate (3) (antibody, human IgG1, kappa, V domains shown)
VH: QVQLQQWGAGLLKPSETLSLTCAVYGGSFSGYYWSWIRQPPGKGLEWIGEINHSGSTNYNPSLKSRVTISVETSKNQFSLKLSSVTAADTAVYYCARDKWTWYFDLWGRGTLVTVSS
VL: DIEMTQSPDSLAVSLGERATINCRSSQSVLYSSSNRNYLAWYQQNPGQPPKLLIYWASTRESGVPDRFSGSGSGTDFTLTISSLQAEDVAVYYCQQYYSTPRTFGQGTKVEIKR
modifications: may carry the same drug-linker on a cysteine (L chain bound to one drug molecule); position not stated; exatecan drug-linker -(Succinimid-3-yl-N)-CH2CH2CH2CH2CH2-C(=O)-GGFG-NH-CH2CH2CH2-C(=O)-(NH-DX), joined by thioether bonds to cysteines freed by reducing the hinge disulfide bonds; average 4.9 drug molecules per antibody (UV method); positions not given
notes: also called ADC (3)
B3: Antibody-drug conjugate (13) (antibody, human IgG1, kappa, V domains shown)
VH: QVQLQQWGAGLLKPSETLSLTCAVYGGSFSGYYWSWIRQPPGKGLEWIGEINHSGSTNYNPSLKSRVTISVETSKNQFSLKLSSVTAADTAVYYCARDKWTWYFDLWGRGTLVTVSS
VL: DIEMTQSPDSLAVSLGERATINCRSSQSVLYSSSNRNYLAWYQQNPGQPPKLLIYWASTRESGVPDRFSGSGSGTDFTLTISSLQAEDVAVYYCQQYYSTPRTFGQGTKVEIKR
modifications: may carry the same drug-linker on a cysteine (L chain bound to one drug molecule); position not stated; exatecan drug-linker -(Succinimid-3-yl-N)-CH2CH2CH2CH2CH2-C(=O)-GGFG-NH-CH2-O-CH2-C(=O)-(NH-DX), joined by thioether bonds to cysteines freed by reducing the hinge disulfide bonds; average 6.2 (procedure E) or 7.0 (procedure F) drug molecules per antibody; positions not given
notes: also called ADC (13)

What follows are binders tested against T1, human epidermal growth factor receptor 3 (HER3) (human, UniProt P21860 20-1342) (assay: flow cytometry on HCC1569 cells, PE-labelled anti-human secondary antibody, one-site specific binding fit).
T1 construct: whole, on cells; The target is the endogenous HER3 of the cell lines used; also called ErbB3; HER3 protein
Description: A human breast cancer cell line HCC1569 (CRL-2330) from ATCC was cultured in an RPMI1640 medium (purchased from Invitrogen Corp., containing 10% […] (manufactured by Invitrogen Corp.) and 2 mM L-glutamine (manufactured by Invitrogen Corp.)). The cells were dissociated from the culture plate using ACCUTASE® SOLUTION (Millipore Corp., SCR005) or EDTA (5 mM, phosphate buffered saline (PBS, 137 mM sodium chloride, 2.7 mM potassium chloride, 1.47 mM potassium dihydrogen phosphate, and 10.5 mM disodium hydrogen phosphate)), and the number of living cells was measured by trypan blue treatment.
The cells of each group were reacted with a primary antibody dilution for 45 minutes on ice and then washed with a FACS buffer. Further, 100 uL of a FACS buffer or a reaction solution of a secondary antibody diluted 1/100 (phycoerythrin (PE)-coupled anti human antibody, Dianova GmbH #709-116-149) was added thereto. The cells were treated for 45 minutes on ice in the dark and then washed with a FACS buffer, and dead cells were excluded using a FACS buffer or a FACS buffer supplemented with 7-aminoactinomycin D (7AAD, Sigma-Aldrich Co. LLC, #A9400, 1.1 ug/mL).
The equilibrium binding affinity KD and the maximum binding strength Bmax were calculated using GraphPad Prism software.
In the case of B1, the Bmax is reported as 31800 and the Kd is reported as 1.67 nM.
B2 showed a Bmax of 28900 and a Kd of 1.65 nM.
With B3 the Bmax was 28400 and the Kd was 2.76 nM.
